Measurements reported in patent US20060228358A1 (UCB, published 2006).
Changes are numbered by the printed parent chain. “And” between values parts separate entries of the source, which are not always exact repeats. Equal entries are not always repeated. Values belong to the binder of their own block, whether it stands above or below them.

Columns and labels:
recombinant human IL-1β [1] = target: T1, recombinant human IL-1β (human, UniProt P01584 117-269); assay: BIAcore, captured antibody, IL-1β titrated in solution, 25 °C
T1 construct: Only the background speaks of the mature 17 kDa form; also called hIL-1β; interleukin-1β

recombinant human IL-1β [2] = target: T1, recombinant human IL-1β; assay: BIAcore, Fab′ captured by anti-hF(ab′)2, IL-1β titrated in solution, 25 °C
Protocol: Affinipure goat anti-human IgG, F(ab′)₂ fragment-specific (Jackson ImmunoResearch Code 109-005-097) was immobilised on flowcell 2 of a CM5 Sensor Chip via amine coupling chemistry to a level of 13025RU. A blocked reference surface was prepared on flowcell 1 by activation with EDC/NHS and deactivation with ethanolaomine using the same volumes as for flowcell 2. HBS-EP buffer (10 mM HEPES pH 7.4, 0.15 M NaCl, 3 mM EDTA, 0.005% Surfactant P20, Biacore AB) was used as the running buffer and assays were performed at 25° C. Anti-IL-1β antibody was passed over flowcells 1 and 2 and captured on the immobilised anti-hF(ab′)₂ surface using a flowrate of 10 μl/min. IL-1β (Strathmann) from 400-0 nM was injected over the blocked and captured anti-IL-1β antibody surface using a flowrate of 30 μl/min for 3 min. The anti-hF(ab′)₂ surface was regenerated with a 30 μl injection of 40 mM HCl followed by a 15 μl injection of 5 mM NaOH. Kinetic parameters were calculated using BIAevalutation 3.1 software.

recombinant human IL-1β [3] = target: T1, recombinant human IL-1β; assay: BIAcore, antibody captured by anti-hFc, IL-1β titrated in solution, 25 °C
Protocol: The assay format used anti-IL-1β antibody captured by anti-hFc with a titration of recombinant human IL-1β in the solution phase. Mouse anti-human IgG, Fc fragment-specific (Celltech) was immobilised on flowcell 2 of a CM5 Sensor Chip via amine coupling chemistry to a level of 12757RU. A blocked reference surface was prepared on flowcell 1 by activation with EDC/NHS and deactivation with ethanolamine using the same volumes as for flowcell 2. HBS-EP buffer (10 mM HEPES pH 7.4, 0.15 M NaCl, 3 mM EDTA, 0.005% Surfactant P20, Biacore AB) was used as the running buffer and assays were performed at 25° C. Anti-IL-1β antibody was passed over flowcells 1 and 2 and captured on the immobilised anti-hFc surface using a flowrate of 10 μl/min. IL-1β from 400-0 nM was injected over the blocked and captured anti-IL-1β antibody surface using a flowrate of 30 μl/min for 3 min. The anti-hFc surface was regenerated with a 30 μl injection of 40 mM HCl. Kinetic parameters were calculated using BIAevaluation 3.1 software.

Kd (recombinant human IL-1β [1]): 0.3 nM
B1: murine monoclonal antibody IC8 (antibody, V domains shown)
VH: DVQLVESGGGLVKPGGSLKLSCAASGFDFSRYDMSWVRQTPEKRLEWVAYISSGGGSTYFPDTVKGRFTISRDNAKNTLYLQMNNLQSEDTAMFYCARQNKKLTWFDYWGQGTLVTVSS
VL: DIQMTQSPASLSASVGETVTITCRTSGNIHNYLTWYQQNLGKSPQLLVYNAKTLADGVPSRFSGSGSGTQFSLTINSLQPEDFGNYYCQHFWSLPFTFGSGTKLEIKR
notes: Mouse monoclonal antibody from a hybridoma; also called mIC8; donor antibody

Kd (recombinant human IL-1β [2]): 0.32 nM
B2: gH3gL3 Fab′ (E. coli-produced) (Fab, V domains shown)
VH: B1 VH with D1E, K13Q, K19R, T40A, E42G, N85S, Q87R, S88A, M93V, F94Y
VL: DIQMTQSPSSLSASVGDRVTITCRTSGNIHNYLTWYQQKPGKAPQLLIYNAKTLADGVPSRFSGSGSGTQFTLTISSLQPEDFANYYCQHFWSLPFTFGQGTKVEIKR
notes: Unpegylated Fab′ with a modified hinge, purified from E. coli periplasm; also called gIC8 Fab′; IC8gL3gH3 Fab′

Kd (recombinant human IL-1β [3]): 0.38 nM
B3: double chimeric IC8 antibody molecule cHcL (antibody, V domains shown)
VH: B1 VH
VL: B1 VL
notes: Murine IC8 V-regions on human gamma-4 heavy and human kappa light constant regions (vectors pMRR14 and pMRR10), expressed in CHO-L761 cells

Kd (recombinant human IL-1β [3]): 0.34 nM
B4: CDR-grafted IC8 antibody gH1gL2 (antibody, V domains shown)
VH: B1 VH with D1E, K13Q, K19R, T40A, E42G, N85S, Q87R, S88A, F94Y
VL: B2 VL with I48V
notes: Human gamma-4 heavy and kappa light constant regions (pMRR14 and pMRR10), expressed in CHO-L761 cells

Kd (recombinant human IL-1β [3]): 0.32 nM
B5: CDR-grafted IC8 antibody gH3gL2 (antibody, V domains shown)
VH: B1 VH with D1E, K13Q, K19R, T40A, E42G, N85S, Q87R, S88A, M93V, F94Y
VL: B2 VL with I48V
notes: as for B4

Kd (recombinant human IL-1β [3]): 1.14 nM and 1.07 nM
B6: CDR-grafted IC8 antibody gH2gL3 (antibody, V domains shown)
VH: B1 VH with D1E, K13Q, K19R, T40A, E42G, R44G, N85S, Q87R, S88A, F94Y
VL: B2 VL
notes: as for B4

Kd (recombinant human IL-1β [3]): 0.35 nM
B7: CDR-grafted IC8 antibody gH1gL1 (antibody, V domains shown)
VH: B1 VH with D1E, K13Q, K19R, T40A, E42G, N85S, Q87R, S88A, F94Y
VL: B2 VL with P40L, I48V
notes: as for B4

Kd (recombinant human IL-1β [3]): 0.28 nM
B8: CDR-grafted IC8 antibody gH3gL3 (antibody, V domains shown)
VH: B1 VH with D1E, K13Q, K19R, T40A, E42G, N85S, Q87R, S88A, M93V, F94Y
VL: B2 VL
notes: Human gamma-4 heavy and kappa light constant regions (pMRR14 and pMRR10), expressed in CHO-L761 cells; also called gL3gH3

Kd (recombinant human IL-1β [3]): 0.28 nM
B9: CDR-grafted IC8 antibody gH3gL1 (antibody, V domains shown)
VH: B1 VH with D1E, K13Q, K19R, T40A, E42G, N85S, Q87R, S88A, M93V, F94Y
VL: B2 VL with P40L, I48V
notes: as for B4

Kd (recombinant human IL-1β [3]): 1.27 nM
B10: CDR-grafted IC8 antibody gH2gL1 (antibody, V domains shown)
VH: B1 VH with D1E, K13Q, K19R, T40A, E42G, R44G, N85S, Q87R, S88A, F94Y
VL: B2 VL with P40L, I48V
notes: as for B4

Kd (recombinant human IL-1β [3]): 0.3 nM
B11: CDR-grafted IC8 antibody gH1gL3 (antibody, V domains shown)
VH: B1 VH with D1E, K13Q, K19R, T40A, E42G, N85S, Q87R, S88A, F94Y
VL: B2 VL
notes: as for B4
